Common to all, as to settings: Homo sapiens
Substrate in series [1]: Cc1ccc(OCCNc2nc(Nc3cc(C)[nH]n3)cc(C)c2C#N)cn1
Description: Activity at Aurora 2 kinase (unknown origin)
Substrate in series [2]: Cc1ccc(OCCNc2nc(Nc3cc(C)[nH]n3)cc(C)c2C#N)cn1
This is another data set of the same source.
Description: Activity at Aurora 1 kinase (unknown origin)

Substrate in series [3]: Cc1ccc(OCCNc2nc(Nc3cc(C)[nH]n3)cc(C)c2C#N)cn1
Description: Activity at LYN (unknown origin)
The source holds these as a separate data set.

B1: Aurora kinase A (Homo sapiens), O14965 (protein)
chain: MDRSKENCISGPVKATAPVGGPKRVLVTQQFPCQNPLPVNSGQAQRVLCPSNSSQRIPLQAQKLVSSHKPVQNQKQKQLQATSVPHPVSRPLNNTQKSKQPLPSAPENNPEEELASKQKNEESKKRQWALEDFEIGRPLGKGKFGNVYLAREKQSKFILALKVLFKAQLEKAGVEHQLRREVEIQSHLRHPNILRLYGYFHDATRVYLILEYAPLGTVYRELQKLSKFDEQRTATYITELANALSYCHSKRVIHRDIKPENLLLGSAGELKIADFGWSVHAPSSRRTTLCGTLDYLPPEMIEGRMHDEKVDLWSLGVLCYEFLVGKPPFEANTYQETYKRISRVEFTFPDFVTEGARDLISRLLKHNPSQRPMLREVLEHPWITANSSKPSNCQNKESASKQS
B1: in series [1], the Km (in general, the concentration of substrate that gives half-maximal velocity) was 28 µM.

B2: Aurora kinase B (Homo sapiens), Q96GD4 (protein)
chain: MAQKENSYPWPYGRQTAPSGLSTLPQRVLRKEPVTPSALVLMSRSNVQPTAAPGQKVMENSSGTPDILTRHFTIDDFEIGRPLGKGKFGNVYLAREKKSHFIVALKVLFKSQIEKEGVEHQLRREIEIQAHLHHPNILRLYNYFYDRRRIYLILEYAPRGELYKELQKSCTFDEQRTATIMEELADALMYCHGKKVIHRDIKPENLLLGLKGELKIADFGWSVHAPSLRRKTMCGTLDYLPPEMIEGRMHNEKVDLWCIGVLCYELLVGNPPFESASHNETYRRIVKVDLKFPASVPMGAQDLISKLLRHNPSERLPLAQVSAHPWVRANSRRVLPPSALQSVA
As to B2, the Km in series [2] amounted to 30 µM.

B3: Tyrosine-protein kinase Lyn (Homo sapiens), P07948 (protein)
chain: MGCIKSKGKDSLSDDGVDLKTQPVRNTERTIYVRDPTSNKQQRPVPESQLLPGQRFQTKDPEEQGDIVVALYPYDGIHPDDLSFKKGEKMKVLEEHGEWWKAKSLLTKKEGFIPSNYVAKLNTLETEEWFFKDITRKDAERQLLAPGNSAGAFLIRESETLKGSFSLSVRDFDPVHGDVIKHYKIRSLDNGGYYISPRITFPCISDMIKHYQKQADGLCRRLEKACISPKPQKPWDKDAWEIPRESIKLVKRLGAGQFGEVWMGYYNNSTKVAVKTLKPGTMSVQAFLEEANLMKTLQHDKLVRLYAVVTREEPIYIITEYMAKGSLLDFLKSDEGGKVLLPKLIDFSAQIAEGMAYIERKNYIHRDLRAANVLVSESLMCKIADFGLARVIEDNEYTAREGAKFPIKWTAPEAINFGCFTIKSDVWSFGILLYEIVTYGKIPYPGRTNADVMTALSQGYRMPRVENCPDELYDIMKMCWKEKAEERPTFDYLQSVLDDFYTATEGQYQQQP
As for B3, the Km in series [3] worked out at 1000 µM.

The values are drawn from ChEMBL document CHEMBL3871290, “3-Cyano-6-(5-methyl-3-pyrazoloamino) pyridines (Part 2): A dual inhibitor of Aurora kinase and tubulin polymerization” (Bioorg Med Chem Lett, 2016).
